± gives the uncertainty stated by the source.
Test: self-splicing fitness, log relative to wild type (ln ratio); higher = more splicing; Tetrahymena group I intron in knt gene, E. coli kanamycin selection, DiMSum; sequences stand for … in CUCUCU…GGAGGGAAAAGUUAUCAGGCAUGCACCUGGUAGCUAGUCUUUAAACCAAUAGAUUGCAUCGGUUUAAAAGGCAAGACCGUCAAAUUGCGGGAAAGGGGUCAACAGCCGUUCAGUACCAAGUCUCAGGGGAAACUUUGAGAUGGCCUUGCAAAGGGUAUGGUAAUAAGCUGACGGACAUGGUCCUAACCACGCAGCCAAGUCCUAAGUCAACAGAUCUUCUGUUGAUAUGGAUGCAGUUCACAGACUAAAUGUCGGUCGGGGAAGAUGUAUUCUUCUCAUAAGAUAUAGUCGGACCUCUCCUUAAUGGGAGCUAGCGGAUGAAGUGAUGCAACACUGGAGCCGCUGGGAACUAAUUUGUAUGCGAAAGUAUAUUGAUUAGUUUUGGAGUACUCGUGGUCG
How it was run: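 A randomised library covering all eight P1ex-region intron nucleotides was built with the intron in the knt kanamycin-resistance gene on pET-22b(+) and held in E. coli BL21(DE3). Cells were grown overnight at 37°C or 30°C on LB agar, with or without 25 μg/mL kanamycin, plus 100 μg/mL carbenicillin, 50 μM IPTG and 0.2% rhamnose, and pooled colonies were amplicon-sequenced on an Illumina HiSeq 2500. DiMSum fitness is the error-weighted combination of wild-type-normalised replicate fold changes, kanamycin versus none.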

Row | Sequence | self-splicing fitness (ln) (30 °C) | self-splicing fitness (ln) (37 °C)
1 | AUAGAGCAAUAUUACGGGUC | -3.75 ± 0.36 | -2.58 ± 0.24
2 | GCCAAGCAAUAUUACGUCCU | -2.11 ± 0.11 | -0.408 ± 0.12
3 | GAGCAGCAAUAUUACGAGCU | -2.58 ± 0.12 | -1.88 ± 0.18
4 | CACGAGCAAUAUUACGCUAC |  | -2.5 ± 0.37
5 | CCUUAGCAAUAUUACGUCUC |  | -2.63 ± 0.3
6 | AUUGAGCAAUAUUACGCCUA | -1.99 ± 0.2 | -1.52 ± 0.2
7 | AUCGAGCAAUAUUACGUGCC | -2.52 ± 0.2 | -2.22 ± 0.32
8 | GAACAGCAAUAUUACGACAG | -3.37 ± 0.18 | -2.55 ± 0.17
9 | CGCGAGCAAUAUUACGUUGU | -3.93 ± 0.28 | -2.4 ± 0.36
10 | CACCAGCAAUAUUACGUAUU | -3.78 ± 0.15 | -2.7 ± 0.16
11 | ACUAAGCAAUAUUACGCGAA | -1.57 ± 0.13 | -1.22 ± 0.17
12 | UCGGAGCAAUAUUACGAGAU |  | -1.51 ± 0.35
13 | GCGAAGCAAUAUUACGAUGG | -2.12 ± 0.13 | -0.641 ± 0.14
14 | AAUUAGCAAUAUUACGUGAG | -1.71 ± 0.077 | -0.654 ± 0.1
15 | GUCAAGCAAUAUUACGGUGU | -2.05 ± 0.071 | -0.734 ± 0.083
16 | AAUGAGCAAUAUUACGAUGU | -2.94 ± 0.15 | -1.97 ± 0.17
17 | GGGAAGCAAUAUUACGGGAC | -2.61 ± 0.21 | -3.45 ± 0.21
18 | CCUUAGCAAUAUUACGUUUC | -1.94 ± 0.18 | -1.11 ± 0.46

Row | Sequence | self-splicing fitness (ln) (30 °C) | self-splicing fitness (ln) (37 °C)
19 | GACGAGCAAUAUUACGGUGA | -3.52 ± 0.23 | -2.05 ± 0.26
20 | ACCAAGCAAUAUUACGUGGC | -3.68 ± 0.18 | -2.94 ± 0.18
21 | UUGAAGCAAUAUUACGAAGG | -1.42 ± 0.13 | -0.248 ± 0.17
22 | CGUCAGCAAUAUUACGCGUC | -2.38 ± 0.42 | 
23 | CUUAAGCAAUAUUACGGGUU | -2.65 ± 0.19 | -3.2 ± 0.27
24 | CAGUAGCAAUAUUACGAGAA |  | -3.36 ± 0.46
25 | UUGAAGCAAUAUUACGUGUA | -1.7 ± 0.053 | -1.25 ± 0.074
26 | ACAGAGCAAUAUUACGAAUU | -4.27 ± 0.33 | -1.57 ± 0.2
27 | UGGUAGCAAUAUUACGACAC | -2.43 ± 0.32 | -1.69 ± 0.18
28 | CUCAAGCAAUAUUACGAACU | -3.03 ± 0.2 | -1.27 ± 0.17
29 | GAGCAGCAAUAUUACGCAGC | -3.7 ± 0.21 | -2.61 ± 0.29
30 | UUGUAGCAAUAUUACGUUGG | -2.77 ± 0.18 | -1.98 ± 0.21
31 | AACUAGCAAUAUUACGACUC | -0.19 ± 0.057 | 0.0401 ± 0.079
32 | GUCCAGCAAUAUUACGGGAG | -1.15 ± 0.063 | -0.322 ± 0.082
33 | UUUUAGCAAUAUUACGCCCA | -0.313 ± 0.22 | 0.00602 ± 0.28
34 | CGCUAGCAAUAUUACGCGUA | -3.45 ± 0.37 | -1.45 ± 0.15
35 | GUCCAGCAAUAUUACGCGAU | -3.24 ± 0.19 | -2.4 ± 0.19

— the supplement of paper PMC7877785
